Assay [1] addresses T1, WT PKCβII catalytic domain (UniProt P05771-2 321-673, primed (phosphorylated) at the three PKC priming sites (T-loop, turn motif, hydrophobic motif)).
T1 construct: Protein kinase C beta, isoform PKCβII, catalytic domain released by TEV cleavage from GST-(3C)-PKCβII that carries a TEV site at position 321; Plasmids for WT PKCβI and PKCβII came from the laboratory archive; also called protein kinase C beta II catalytic domain; PKCβII kinase domain; source: SF21 cells (baculovirus), purified (Glutathione-Sepharose, His-TEV cleavage, Superdex 200); not shown: …
Kind of assay: fluorescence polarisation; PKCβII catalytic domain titrated into 280 nM fluorescein-PSS peptide in a cuvette; 20°C; 50 mM Tris-HCl pH 7.5, 150 mM NaCl, 5 mM MgCl2, 0.05% Brij-35, 500 μM AMP-PCP, 5% glycerol; anisotropy fitted assuming a 1:1 interaction. Conditions: both partners purified. For orientation: Fluorescence polarisation rises when a labelled molecule tumbles more slowly, as on binding a larger partner.

Assay [2] has as its target T2, D427N PKCβII catalytic domain (UniProt P05771-2 321-673, D427N, phosphorylated at T500 and at the other two PKC priming sites in the C-terminal tail).
T2 construct: D427N is a somatic mutation found in ATLL patients; source: SF21 cells (baculovirus), purified (Glutathione-Sepharose, His-TEV cleavage, Superdex 200); not shown: GST, N-terminal, cleaved
The description is as above. The conditions noted are these: both partners purified.

FAM = fluorescein label

T1 sequence (P05771 other isoform, or with tags, fused parts or gaps): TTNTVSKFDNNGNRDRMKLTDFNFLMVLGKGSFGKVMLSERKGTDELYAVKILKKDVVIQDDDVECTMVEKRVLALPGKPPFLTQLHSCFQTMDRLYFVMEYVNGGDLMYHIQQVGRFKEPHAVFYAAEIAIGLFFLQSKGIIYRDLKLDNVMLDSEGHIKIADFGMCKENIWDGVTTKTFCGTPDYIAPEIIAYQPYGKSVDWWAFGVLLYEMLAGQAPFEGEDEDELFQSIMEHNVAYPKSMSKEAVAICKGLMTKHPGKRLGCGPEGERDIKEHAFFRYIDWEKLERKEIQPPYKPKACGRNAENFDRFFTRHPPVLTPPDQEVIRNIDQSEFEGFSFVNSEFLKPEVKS
T2 sequence (P05771 other isoform, or with tags, fused parts or gaps D427N | D427N | D427N D427N): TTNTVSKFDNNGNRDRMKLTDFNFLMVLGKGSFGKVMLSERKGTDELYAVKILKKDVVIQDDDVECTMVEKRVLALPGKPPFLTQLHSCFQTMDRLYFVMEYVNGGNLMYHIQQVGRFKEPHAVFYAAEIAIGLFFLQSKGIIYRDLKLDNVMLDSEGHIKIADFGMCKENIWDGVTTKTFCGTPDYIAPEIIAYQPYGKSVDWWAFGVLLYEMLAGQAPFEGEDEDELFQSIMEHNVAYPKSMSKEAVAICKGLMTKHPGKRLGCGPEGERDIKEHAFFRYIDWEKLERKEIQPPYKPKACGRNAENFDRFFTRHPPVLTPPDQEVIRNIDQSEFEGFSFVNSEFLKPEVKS

B1: Fluorescein-PSS peptide (peptide)
peptide: {FAM}-ESTVRFARKGSLRQKNVH-NH2
notes: source: synthetic peptide (HPLC purified to >95%)
As for B1, the dissociation constant (Kd) – broadly, the free concentration of one partner at which half of the binding sites on the other are occupied at equilibrium, for simple one-to-one binding – in assay [1] was determined as 35.3 µM; in assay [2], 72 µM.

(Values after PMC12687424, “Penetrant PKCβ mutation in ATLL displays a mixed gain-of-function” (Biochemical Journal, 2025).)
